# Experiment: soluble on expression in E. coli; label from the status in PepcDB or PDB records
row,Sequence,soluble on expression in E. coli
1,MGSDKIHHHHHHMQKSRPEQDVHEDIKILIQTHFGESGQGIHIEVKGDKVSLWGTVDSLAEKDFIGQRIGRIDGVKELDNSLTVANDGKITDKDIEKQVVERFAQSNFEEIMHLGCRASKGIVTLLGHLETQSSERLAKRIASQVRGVKEVRSEIDFLEKAVDDATLVNRVENALVASPWVNAHEIKTSARNGLITLTGMVNTQEEMEWAVDTAYQVPGVKAVVSEIFSRHRSQGEDLYMTEQLVRKLGQHGMTSQLVRAFVQDGIAYMTGEVYSDEDRRWAESMGQHVEGIKSINSSIKVAAHSSK,not soluble
2,MYEIKGHHHISMVTKNANENNHFYKNVLGLRRVKMTVNQDDPSMYHLFYGDKTGSPGTELSFFEIPLVGRTYRGTNAITRIGLLVPSEDSLHYWKERFEKFDVKHSEMTTYANRPALQFEDAEGLRLVLLVSNGEKVEHWETWEKSEVPAKHQIQGMGSVELTVRRLDKMASTLTEIFGYTEVSRNDQEAIFQSIKGEAFGEIVVKYLDGPTEKPGRGSIHHLAIRVKNDAELAYWEEQVKQRGFHSSGIIDRFYFKSLYFRESNGILFEIATDGPGFTVDGDVEHLGEKLDLPPFLEDQRAEIEANLAPIEEK,soluble
3,MSLEESAVPGWVLELLREAGYKSLLPIQEKAFPIIYRGLNALVVAPTGSGKTEAALAPLLARLRNGRVASGGGVKVVYVTPLRALNRDLEGRVERLAGLFGYTVQVRHGDTVQSSRRRFLERPPDIVITTPESLALLLTVKRAKEVLKQARAVVVDEIHELMESKRGVELSLNLEKLELMAGRRLQRIGLSATVSRHSLYRAASLLGAGRHVSMVLDTSPKEYDVRVVVVGDEGRFWENSVKAIAELVKGEGGSVLIFANTRSTVETLAFALSRELGEEVPAHHGSLSRHVRERVERDFKEGRVKAIVATSSLELGIDVGRVALVVQFLSPRQVTAMVQRAGRSGHRFGERSRAVIVTIDNVFEVLESHVIAFRAMKGDLEDISIPKKPYDALAHFMAGAAIDSEPPTLEGVYKLAVSTAPYEDLKMEEVEEIARVLSDVRVIRLGPGGKLGRSSRTYSYFYRVSMIPDEKTFKVHDVVSGRDVGEVGERFIQLRLMKASDPREGHHHHHH,not soluble
4,MRGMLPLFEPKGRVLLVDGHHLAYRTFHALKGLTTSRGEPVQAVYGFAKSLLKALKEDGDAVIVVFDAKAPSFRHEAYGGYKAGRAPTPEDFPRQLALIKELVDLLGLARLEVPGYEADDVLASLAKKAEKEGYEVRILTADKDLYQLLSDRIHVLHPEGYLITPAWLWEKYGLRPDQWADYRALTGDESDNLPGVKGIGEKTARKLLEEWGSLEALLKNLDRLKPAIREKILAHMDDLKLSWDLAKVRTDLPLEVDFAKRREPDRERLRAFLERLEFGSLLHEFGLLESPKALEEAPWPPPEGAFVGFVLSRKEPMWADLLALAAARGGRVHRAPEPYKALRDLKEARGLLAKDLSVLALREGLGLPPGDDPMLLAYLLDPSNTTPEGVARRYGGEWTEEAGERAALSERLFANLWGRLEGEERLLWLYREVERPLSAVLAHMEATGVRLDVAYLRALSLEVAEEIARLEAEVFRLAGHPFNLNSRDQLERVLFDELGLPAIGKTEKTGKRSTSAAVLEALREAHPIVEKILQYRELTKLKSTYIDPLPDLIHPRTGRLHTRFNQTATATGRLCCCDPNLQNIPVRTPLGQRIRRGFIAEEGWLLVALDYSQIELRVLAHLSGDENLIRVFQEGRDIHTETASWMFGVPREAVDPLMRRAAKTINFGVLYGMSAHRLSQELAIPYEEAQAFIERYFQSFPKVRAWIEKTLEEGRRRGYVETLFGRRRYVPDLEARVKSVREAAERMAFNMPVQGTAADLMKLAMVKLFPRLEEMGARMLLQVHDELVLEAPKERAEAVARLAKEVMEGVYPLAVPLEVEVGIGEDWLSAKE,soluble
5,LMKLYSLSVFYKGEPKAVLLKAAYDVSSFSFFQRSSVQEFMTFTSQLIVERSAKGSRASVKEQEYLCHVYVRSDSLAGVVIADSEYPSRVAFTLLEKVLDEFSKQVDRIDWPVGSPATIHYTALDGHLSRYQNPREADPMSKVQAELDETKIILHNTMESLLERGEKLDDLVSKSEVLGTQSKAFYKTARKQNSCCAIM,soluble
6,MGSDKIHHHHHHMDNEIVSSWHQGELAVQQRAGTDERMAEIGPKFIREFMPQQHRDFFQSLSMIFVGYTDHCSNAYASVLFGAPGFIQSPTETELVINTQSTIGDFIIEDLREGDHIGLVGIEFDTKRRNRINGVITDINQKNIKVKVLQSYGNCPKYIQPKEFAPNRSYSEFTTVSLDQLSQKYREIISSADTFFIASSFDDGQKFRNRGVDVSHRGGEVGFVSINAAGQLLVDDYVGNGFFNTLGNLLENPIASLLFCDWQTGHVLKIAVSSEILWHDEQQDSVVLAAGKVKRSLCFTPIKIEQFNNGLAYIQQF,not soluble
7,MAFKDTFNKMISYFDTDEVNEVEEDVAASTDNVIPRSQQSVRASSHPKQEPRNNHVQQDHQARSQEQTRSQMHPKHGTSERYYQQSQPKEGHEMVDRRKRMSTSGIANRREQYQQSTCSDQTTIALKYPRKYEDAQEIVDLLIVNECVLIDFQFMLDAQARRCLDFIDGASKVLYGSLQKVGSSMYLLAPSNVSVNIEEMTIPHTTQDIGFDFDMKRRLEHHHHHH,not soluble
8,MSLSIALIAPYESLATLCRSICQELDLDVSVHTGSMEDGVRIARNLMAEGVDFFISRGLTAQLIREQCPLPVAELEVSAFDIYLCLEPLLRSGKSIGVVGHSDILRKAKGASAALGFTIDFYATAHPGGMGHIMEAARRQGIAAIAGDAVAARTAERYGMEGVLVQNGADSVTNTLQYAVATYSYLTRQATMAGEGHHHHHH,not soluble
9,IQLQQATQLHFSELGKLLDDLRVEKHINEVRLKLTPSFAFKWLVPKLESFQLENPEIQVQIFAEGALVNSDLKDYDVAIDYGLHPYRDHDAELILDEKLLPVMSPKYLEDHRWLKTPFGDQTSSMSANQWQAATLLHDAMPWEKATRDYEWLYWASAMGFDFKTDVGHFFNRTDMAMSAAEAGVGIAMARMALIEDELTTKRLVSPFAPIPANAGYYLIMNTRSQSTERFREWLLKQIESRR,not soluble
10,MGSDKIHHHHHHMPELTEFQKKRLENIKRNNDLLKKLHLSGVASQIKHEAGVLEKSRAPAKKKQKTTNTRATKSASPTLPTRRSRRLRGESADDVKGIPNVNDNQLLKMGSPDGQDKNFIDAIKEKPVIGDVKLSDLIKDEDESALLEKFKRFNNGNFSSGDFFEEIKKRQGDVTGMDEFDLDLYDVFQPNEIKITYERISATYFHPAMEKKLIIAGDTSGTVGFWNVRDEPLADSEEDRMEEPDITRVKLFTKNVGRIDCFPADTSKILLTSYDGSIRSVHLNNLQSEEVLTLKNEYDDSLGISDCQFSYENPNVLFLTTLGGEFTTFDTRVKKSEYNLRRLADKKIGSMAINPMRPYEIATGSLDRTLKIWDTRNLVKKPEWSQYEDYPSHEIVSTYDSRLSVSAVSYSPTDGTLVCNGYDDTIRLFDVKSRDHLSAKLEPKLTIQHNCQTGRWTSILKARFKPNKNVFAIANMKRAIDIYNSEGQQLAHLPTATVPAVISWHPLRNWIAGGNSSGKIFLFTDDSGTIKQEE,not soluble
11,MEKVAFIGLGAMGYPMAGHLARRFPTLVWNRTFEKALRHQEEFGSEAVPLERVAEARVIFTCLPTTREVYEVAEALYPYLREGTYWVDATSGEPEASRRLAERLREKGVTYLDAPVSGGTSGAEAGTLTVMLGGPEEAVERVRPFLAYAKKVVHVGPVGAGHAVKAINNALLAVNLWAAGEGLLALVKQGVSAEKALEVINASSGRSNATENLIPQRVLTRAFPKTFALGLLVKDLGIAMGVLDGEKAPSPLLRLAREVYEMAKRELGPDADHVEALRLLERWGGVEIR,soluble
12,MAEHGETQADEEEEEQVWSWGAGTDGQLGTTKLQDELLPQLLSLTSLPSISMLACGGAHVIALTSGGKVFTWGRGSSGQLGHGDILNITLPKLVSFFDDSVITQAAAGWSHSGFVSDSGCIFTCGNGSFGQLGHGDTLSLSTPAKVSHFNNDSVKMVACGMRHSLVLFAGNQVCGFGSGKRGQLGFSSDRIKSVNLPCVVSGLKDVEVVRISANGDHSAAISADGQFFSWGRGFCGGPDVHAPQSLPSPLSFREVAVGWNHALLLTVDGEVFKLGSTLNKQPEKQQLQIDSSEALFEKVPDFDGVKVMQIAAGAEHSAAVTENGEVKTWGWGEHGQLGLGNTNDQTSPELVSLGSIDLRTKEIKVYCGSGFTYAVKRKQELSPTSS,soluble

# Source: the DeepSol protein solubility set
